Tests used:
Assay in all cases: cryo-EM structure
[1] = molecular target: T1, MED23 (Mus musculus (endogenous in CH12 cells), UniProt Q80YQ2 1-1367)
T1 sequence (looked up): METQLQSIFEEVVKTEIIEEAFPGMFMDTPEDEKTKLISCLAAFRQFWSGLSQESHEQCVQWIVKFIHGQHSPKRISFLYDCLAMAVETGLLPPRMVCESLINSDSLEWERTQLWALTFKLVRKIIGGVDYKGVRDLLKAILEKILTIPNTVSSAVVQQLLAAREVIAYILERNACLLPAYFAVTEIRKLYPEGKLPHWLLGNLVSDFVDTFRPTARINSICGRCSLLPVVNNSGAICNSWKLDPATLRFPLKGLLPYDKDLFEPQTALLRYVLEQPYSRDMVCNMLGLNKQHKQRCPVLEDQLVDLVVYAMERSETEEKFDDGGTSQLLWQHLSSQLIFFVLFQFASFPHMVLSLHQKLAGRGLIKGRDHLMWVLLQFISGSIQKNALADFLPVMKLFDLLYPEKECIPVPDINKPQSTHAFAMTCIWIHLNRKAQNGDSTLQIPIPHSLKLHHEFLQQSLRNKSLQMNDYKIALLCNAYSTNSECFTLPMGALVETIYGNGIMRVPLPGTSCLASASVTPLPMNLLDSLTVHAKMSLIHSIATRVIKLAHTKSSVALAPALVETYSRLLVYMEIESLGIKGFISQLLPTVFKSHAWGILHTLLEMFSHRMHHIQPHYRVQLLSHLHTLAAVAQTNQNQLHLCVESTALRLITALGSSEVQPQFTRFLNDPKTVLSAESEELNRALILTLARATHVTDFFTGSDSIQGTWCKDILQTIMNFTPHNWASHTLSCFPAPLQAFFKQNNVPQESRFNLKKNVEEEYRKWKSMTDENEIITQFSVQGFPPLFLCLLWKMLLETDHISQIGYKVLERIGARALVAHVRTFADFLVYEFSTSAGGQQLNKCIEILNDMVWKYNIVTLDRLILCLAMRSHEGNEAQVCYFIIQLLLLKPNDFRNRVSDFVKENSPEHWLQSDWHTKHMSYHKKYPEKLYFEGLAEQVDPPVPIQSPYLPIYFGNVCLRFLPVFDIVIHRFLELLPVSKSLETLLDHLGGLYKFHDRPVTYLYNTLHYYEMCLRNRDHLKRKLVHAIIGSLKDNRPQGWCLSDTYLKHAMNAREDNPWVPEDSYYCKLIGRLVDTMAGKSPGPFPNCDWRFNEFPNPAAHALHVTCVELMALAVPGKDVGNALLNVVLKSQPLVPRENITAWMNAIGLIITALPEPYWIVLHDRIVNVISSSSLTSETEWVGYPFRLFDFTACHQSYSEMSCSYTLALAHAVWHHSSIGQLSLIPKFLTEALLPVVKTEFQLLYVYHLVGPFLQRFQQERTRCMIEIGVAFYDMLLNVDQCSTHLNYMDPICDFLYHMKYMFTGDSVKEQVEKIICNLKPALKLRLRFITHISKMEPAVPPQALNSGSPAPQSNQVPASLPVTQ

[2] = molecular target: T2, MED24 (Mus musculus (endogenous in CH12 cells), UniProt Q99K74 1-987)
T2 sequence (looked up): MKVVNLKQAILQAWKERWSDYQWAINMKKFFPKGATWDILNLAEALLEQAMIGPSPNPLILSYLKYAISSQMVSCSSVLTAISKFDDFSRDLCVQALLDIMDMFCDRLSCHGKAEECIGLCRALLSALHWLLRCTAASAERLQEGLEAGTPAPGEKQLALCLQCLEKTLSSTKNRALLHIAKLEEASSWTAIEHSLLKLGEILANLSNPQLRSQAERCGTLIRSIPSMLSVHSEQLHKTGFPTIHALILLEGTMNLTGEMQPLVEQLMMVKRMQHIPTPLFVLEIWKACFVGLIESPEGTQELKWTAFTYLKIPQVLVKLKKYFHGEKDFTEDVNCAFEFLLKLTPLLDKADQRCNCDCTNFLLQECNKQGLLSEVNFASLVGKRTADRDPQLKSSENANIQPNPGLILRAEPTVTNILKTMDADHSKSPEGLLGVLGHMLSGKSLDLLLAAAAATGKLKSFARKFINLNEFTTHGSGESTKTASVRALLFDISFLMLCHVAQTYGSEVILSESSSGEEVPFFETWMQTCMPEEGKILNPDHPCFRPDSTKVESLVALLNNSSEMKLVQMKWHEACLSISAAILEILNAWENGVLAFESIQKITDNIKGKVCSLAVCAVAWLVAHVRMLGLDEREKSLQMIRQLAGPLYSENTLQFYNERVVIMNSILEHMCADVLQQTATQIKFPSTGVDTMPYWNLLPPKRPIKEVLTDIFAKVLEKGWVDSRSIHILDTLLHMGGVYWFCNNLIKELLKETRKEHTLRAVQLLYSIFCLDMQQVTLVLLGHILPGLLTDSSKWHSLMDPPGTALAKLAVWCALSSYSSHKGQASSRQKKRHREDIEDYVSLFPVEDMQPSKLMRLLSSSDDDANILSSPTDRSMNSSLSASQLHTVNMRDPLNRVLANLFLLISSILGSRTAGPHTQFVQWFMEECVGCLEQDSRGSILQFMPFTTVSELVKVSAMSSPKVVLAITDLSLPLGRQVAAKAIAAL

[3] = molecular target: T3, MED16 (Mus musculus (endogenous in CH12 cells), UniProt Q6PGF3 1-828)
T3 sequence (looked up): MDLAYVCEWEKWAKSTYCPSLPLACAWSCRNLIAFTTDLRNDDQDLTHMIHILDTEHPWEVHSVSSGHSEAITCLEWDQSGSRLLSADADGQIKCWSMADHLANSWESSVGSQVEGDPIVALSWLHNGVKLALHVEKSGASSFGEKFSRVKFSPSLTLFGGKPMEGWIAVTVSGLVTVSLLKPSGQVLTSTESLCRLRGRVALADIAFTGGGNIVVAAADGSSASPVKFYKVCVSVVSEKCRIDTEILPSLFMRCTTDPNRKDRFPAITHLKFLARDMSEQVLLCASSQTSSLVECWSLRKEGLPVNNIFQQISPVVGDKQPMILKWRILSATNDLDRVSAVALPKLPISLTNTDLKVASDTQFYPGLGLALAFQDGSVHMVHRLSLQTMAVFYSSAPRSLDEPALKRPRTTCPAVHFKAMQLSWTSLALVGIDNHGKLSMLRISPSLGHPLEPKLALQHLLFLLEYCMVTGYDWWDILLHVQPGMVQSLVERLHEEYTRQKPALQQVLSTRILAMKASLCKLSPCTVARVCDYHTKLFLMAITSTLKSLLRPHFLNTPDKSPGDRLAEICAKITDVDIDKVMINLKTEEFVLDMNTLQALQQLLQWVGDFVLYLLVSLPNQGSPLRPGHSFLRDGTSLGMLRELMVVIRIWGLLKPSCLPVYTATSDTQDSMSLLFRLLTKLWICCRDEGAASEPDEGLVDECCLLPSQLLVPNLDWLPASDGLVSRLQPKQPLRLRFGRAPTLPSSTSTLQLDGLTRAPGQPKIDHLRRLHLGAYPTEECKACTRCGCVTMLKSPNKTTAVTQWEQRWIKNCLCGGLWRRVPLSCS

[4] = molecular target: MED14 (Mus musculus (endogenous in CH12 cells), UniProt A2ABV5 1-1459)
Sequence of MED14 (A2ABV5 whole entry): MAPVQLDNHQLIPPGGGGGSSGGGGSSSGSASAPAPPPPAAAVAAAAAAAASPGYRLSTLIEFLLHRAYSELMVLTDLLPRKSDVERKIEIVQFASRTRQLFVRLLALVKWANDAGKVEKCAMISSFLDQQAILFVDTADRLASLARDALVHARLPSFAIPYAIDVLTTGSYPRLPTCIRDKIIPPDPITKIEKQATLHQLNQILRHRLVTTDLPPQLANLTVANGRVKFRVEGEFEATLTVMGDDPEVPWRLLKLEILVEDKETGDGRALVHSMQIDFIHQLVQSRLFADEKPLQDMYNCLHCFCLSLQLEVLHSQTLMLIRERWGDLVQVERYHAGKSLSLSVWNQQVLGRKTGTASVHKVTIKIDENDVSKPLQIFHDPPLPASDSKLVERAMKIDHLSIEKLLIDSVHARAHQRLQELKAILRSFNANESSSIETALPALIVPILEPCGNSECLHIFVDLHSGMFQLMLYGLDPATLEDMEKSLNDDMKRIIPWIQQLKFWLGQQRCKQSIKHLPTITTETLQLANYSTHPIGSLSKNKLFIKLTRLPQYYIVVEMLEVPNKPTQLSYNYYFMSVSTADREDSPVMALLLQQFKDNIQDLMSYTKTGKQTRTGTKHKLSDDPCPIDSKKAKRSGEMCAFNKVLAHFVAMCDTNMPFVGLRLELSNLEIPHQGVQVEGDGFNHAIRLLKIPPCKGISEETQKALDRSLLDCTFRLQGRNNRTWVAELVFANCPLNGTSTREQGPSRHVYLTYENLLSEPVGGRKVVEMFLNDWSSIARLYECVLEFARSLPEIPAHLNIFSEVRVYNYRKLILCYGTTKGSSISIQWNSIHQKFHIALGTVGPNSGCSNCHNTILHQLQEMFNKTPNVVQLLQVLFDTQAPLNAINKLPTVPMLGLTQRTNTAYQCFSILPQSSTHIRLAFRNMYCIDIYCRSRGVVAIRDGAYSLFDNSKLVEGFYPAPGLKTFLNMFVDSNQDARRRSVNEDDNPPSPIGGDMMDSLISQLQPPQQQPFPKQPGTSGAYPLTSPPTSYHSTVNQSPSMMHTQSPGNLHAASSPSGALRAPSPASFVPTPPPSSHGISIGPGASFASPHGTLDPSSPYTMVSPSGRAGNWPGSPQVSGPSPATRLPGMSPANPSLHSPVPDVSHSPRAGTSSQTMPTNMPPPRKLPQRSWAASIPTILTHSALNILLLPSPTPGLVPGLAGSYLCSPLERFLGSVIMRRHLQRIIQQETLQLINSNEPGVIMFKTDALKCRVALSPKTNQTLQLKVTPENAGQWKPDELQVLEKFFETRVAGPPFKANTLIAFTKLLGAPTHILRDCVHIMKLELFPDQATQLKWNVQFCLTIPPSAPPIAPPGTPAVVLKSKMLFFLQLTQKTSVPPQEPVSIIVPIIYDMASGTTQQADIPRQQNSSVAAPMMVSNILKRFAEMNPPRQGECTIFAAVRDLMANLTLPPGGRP

Measured: binding result

B1: MED25 (natural protein, Mus musculus (endogenous in CH12 cells), UniProt Q8VCB2 1-745, looked up)
chain: MVPGSEGPARAGGLVADVVFVIEGTANLGPYFEELRKHYLLPAIEYFNGGPPAETDFGGDYGGTQYSLVVFNTVDCAPESYVQCHAPTSSAYEFVTWLDGIKFMGGGGESCSLIAEGLSTALQLFDDFKKMREQIGQTHRVCLLICNSPPYLLPAVESTTYSGCTTESLVQKIGERGIHFSIVSPRKLPALRLLFEKAAPPALLEPLQQPADVSQDPRHMVLVRGLVLPVGGSSTSGSLQTKQAVPLPPAPASAATLSAAPPQALPPVPPQYQVPGNLSAAQVAAQNAVEAAKSQKAGLGPRFSPINPLQQAAPGVGPPFSQAPAPPLAPVPPGAPKPPPASQPSLVSTVAPGPVLAAPAQPGAPSLAGTVTPGGVNGPSAAQLGGPALGGQQSVSNKLLAWSGVLEWQEKPKPASVDANTKLTRSLPCQVYVNHGENLKTEQWPQKLIMQLIPQQLLTTLGPLFRNSRMVQFHFTNKDLESLKGLYRIMGNGFAGCVHFPHTAPCEVRVLMLLYSSKKKIFMGLIPYDQSGFVNGIRQVITNHKQVQQQKLEQQRGMGAQQAPPVLGPILEEQARPPQNLLQLRAPQPQPQGAVGASAATGQPQPQGATQAPTGAPQGPPGAAPGPPPSGPILRPQNPGANPQLRSLLLNPAPPQTGVPPPQASLHHLQPPGAPTLLPPHQSMGQPQLGPQLLHPPPAQSWPTQLPQRAPLPGQMLLSGGPRGPVPQPGLQPSVMEDDILMDLI
binds: [1] | [2] | [3]

B2: MED15 (natural protein, Mus musculus (endogenous in CH12 cells), UniProt Q924H2 1-789, looked up)
chain: MDVSGQETDWRSAAFRQKLVSQIEDAMRKAGVAHSKSSKDMESHVFLKAKTRDEYLSLVARLIIHFRDIHNKKSQASVSDPMNALQSLTGGPTPGAAGIGMPPRGPGQSLGGMGGLGAMGQPLPLSGQPPPGTSGMAPHGMAVVSTATPQTQLQLQQVALQQQQQQQQQQQFQQQQAALQQQQQQQQQQQQQQQFQAQQNAMQQQFQAVVQQQQLQQQQQQQHLIKLHHQSQQQQIQQQQLQRMAQLQLQQQQQQQQQQALQAQPPMQQPSMQQPQPPPSQALPQQLSQLHHPQHHQPPPQAQQSPIAQNQPPQIPPQSQSQPLVSQAQALPGPMLYAAQQQLKFVRAPMVVQQPQVQPQVQQVQPQVQPQAAVQAAQSAQMVAPGVQMIAEALAQGGMHVRARFPPTSTMSAGPSSSISLGGQPTTQVSQSSLTMLSSPSPGQQVQTPQSMPPPPQPSPQPGSQPNSNVSSGPAPSPSSFLPSPSPQPSQSPVTARTPQNFSVPSPGPLNTPVNPSSVMSPAGSSQAEEQQYLDKLKQLSKYIEPLRRMINKIDKNEDRKKDLSKMKSLLDILTDPSKRCPLKTLQKCEIALEKLKNDMAVPTPPPPPVLPTKQQDLCQPLLDAVLANIRSPVFNHSLYRTFVPAMMAIHGPPIVSPVVCSRKRRFEEDERQSIPNVLQGEVARLDPKFLVNLDPSHCSNNGTVHLICKLDDKDLPSVPPLELSVPADYPAQSPMWIDRQWQYDANPFLQSVHRCMTSRLLQLPDKHSVTALLNTWAQSIHQACLSAA
binds: all assays above

Reference: paper doi:10.1101/2020.10.05.326918 (bioRxiv, 2020)
